The supplement of paper PMC10126150
± gives the standard deviation of the averaged measurements.

Tested on: ATP
Assay: switch fluorescence ratio, 500 uM ATP over buffer (Cy3 cluster intensity, sum of 5 cycles each) (fold (ratio)); higher = stronger signal-on switching upon ATP binding; sequences stand for … in TCGTCGGCAGCGTCAGATGTGTATAAGAGACAGTTTTTTTTTTTTTTTTTTTTTTTTT…TC
Conditions: aptamer strand: ATP DNA aptamer (quencher-CACCTGGGGGAGTATTGCGGAGGAAGG + anchor), 100 nM annealed; ATP concentration: 500 uM
Method in brief: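 The fluorescence ratio divides summed target-cycle Cy3 intensity by summed buffer-cycle Cy3 intensity for each cluster and is averaged per switch-domain sequence. Cy3-labelled switching-strand clusters on a modified Illumina MiSeq flow-cell were annealed to 100 nM quencher-labelled ATP aptamer, then imaged in selection buffer and again after 15 min with 500 uM ATP at 22 °C. Five such cycles were run, with NaOH stripping and re-annealing between them, and clusters outside 100-1000 RFU were excluded.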
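Note: ATP exposure 15 min at 22 °C before imaging.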

Which switch fluorescence ratio does the source give for GAAGTGCATT here?
Its switch fluorescence ratio is 0.98 ± 0.053.

TTGGGGATTA was tested. Which switch fluorescence ratio did it give?
Its switch fluorescence ratio is 1.09 ± 0.18.

For GGATGGGTGG, which switch fluorescence ratio is on record?
The switch fluorescence ratio was 0.99 ± 0.025.

For TGGGTTTGTG, which switch fluorescence ratio is on record?
The switch fluorescence ratio was 0.996 ± 0.033.

Which switch fluorescence ratio does the source give for GATATTTCCC here?
The switch fluorescence ratio was 0.9981 ± 0.0064.

Which switch fluorescence ratio does the source give for TGCCAGATTT here?
The switch fluorescence ratio was 0.993 ± 0.041.

How did the switch fluorescence ratio turn out when GGGTTGAGAG was run?
The switch fluorescence ratio was 0.985 ± 0.026.

How did the switch fluorescence ratio turn out when ATAATTTTAG was run?
Its switch fluorescence ratio is 0.999 ± 0.031.

How did the switch fluorescence ratio turn out when TGCTAGGGGG was run?
Its switch fluorescence ratio is 0.989 ± 0.02.

How did the switch fluorescence ratio turn out when CGGGACCGGC was run?
Its switch fluorescence ratio is 1.04 ± 0.13.

Which switch fluorescence ratio does the source give for TTGTGCGTAG here?
The switch fluorescence ratio was 0.991 ± 0.047.

How did the switch fluorescence ratio turn out when TTTTTGATTT was run?
The switch fluorescence ratio was 1.01 ± 0.036.

With CTAGAGTGAG as the sequence, how does the switch fluorescence ratio read?
The switch fluorescence ratio was 1.02 ± 0.049.

Which switch fluorescence ratio does the source give for TAATGCAATT here?
Its switch fluorescence ratio is 1.018 ± 0.0064.

With GGCCAAGGTC as the sequence, how does the switch fluorescence ratio read?
The switch fluorescence ratio was 1.004 ± 0.004.

With TGTTAATCAC as the sequence, how does the switch fluorescence ratio read?
Its switch fluorescence ratio is 1.02 ± 0.034.

With TTTCAACATA as the sequence, how does the switch fluorescence ratio read?
Its switch fluorescence ratio is 0.9987 ± 0.0035.

CGCTGTCAGC was tested. Which switch fluorescence ratio did it give?
The switch fluorescence ratio was 1.002 ± 0.0037.

With AGTGGGGTTA as the sequence, how does the switch fluorescence ratio read?
Its switch fluorescence ratio is 0.999 ± 0.04.

With GTGATTTCGG as the sequence, how does the switch fluorescence ratio read?
The switch fluorescence ratio was 1.022 ± 0.0095.

With GCCTGATGCG as the sequence, how does the switch fluorescence ratio read?
Its switch fluorescence ratio is 0.997 ± 0.055.

TGATCGGGGT was tested. Which switch fluorescence ratio did it give?
Its switch fluorescence ratio is 1.02 ± 0.018.

How did the switch fluorescence ratio turn out when AGGTTAGGG was run?
The switch fluorescence ratio was 1 ± 0.064.

How did the switch fluorescence ratio turn out when TGATTCGGTT was run?
The switch fluorescence ratio was 1.037 ± 0.0089.

Which switch fluorescence ratio does the source give for TTTAATAGTT here?
The switch fluorescence ratio was 1.03 ± 0.022.

AAGCTGTTAT was tested. Which switch fluorescence ratio did it give?
The switch fluorescence ratio was 1.16 ± 0.29.

CTGTTTGAGA was tested. Which switch fluorescence ratio did it give?
Its switch fluorescence ratio is 1.02 ± 0.018.

How did the switch fluorescence ratio turn out when CCGGGGGAGG was run?
The switch fluorescence ratio was 1.06 ± 0.048.

For GTTTTGCCTC, which switch fluorescence ratio is on record?
The switch fluorescence ratio was 0.984 ± 0.01.

How did the switch fluorescence ratio turn out when GGCGCATGTC was run?
Its switch fluorescence ratio is 1.14 ± 0.029.

Which switch fluorescence ratio does the source give for GCTGGGGTAT here?
The switch fluorescence ratio was 0.984 ± 0.015.

How did the switch fluorescence ratio turn out when TTCCTTGGAT was run?
Its switch fluorescence ratio is 1.015 ± 0.0019.

For GGACATTTAG, which switch fluorescence ratio is on record?
Its switch fluorescence ratio is 1.03 ± 0.017.

TTGATGTGCT was tested. Which switch fluorescence ratio did it give?
The switch fluorescence ratio was 1.01 ± 0.013.

With GGCTGAGTTA as the sequence, how does the switch fluorescence ratio read?
The switch fluorescence ratio was 1.021 ± 0.0025.

For ACTTAGTCTA, which switch fluorescence ratio is on record?
Its switch fluorescence ratio is 1.023 ± 0.0066.

For GAGTGAAATG, which switch fluorescence ratio is on record?
Its switch fluorescence ratio is 1.02 ± 0.023.

How did the switch fluorescence ratio turn out when CGGTCATTTT was run?
Its switch fluorescence ratio is 0.998 ± 0.033.

With AGCAAGGGCG as the sequence, how does the switch fluorescence ratio read?
The switch fluorescence ratio was 1.06 ± 0.074.

Which switch fluorescence ratio does the source give for GGGAAGGCGG here?
The switch fluorescence ratio was 1.02 ± 0.027.

With TTAGTTTGTT as the sequence, how does the switch fluorescence ratio read?
Its switch fluorescence ratio is 0.981 ± 0.014.

With AAAGAGAATA as the sequence, how does the switch fluorescence ratio read?
Its switch fluorescence ratio is 0.987 ± 0.036.

Which switch fluorescence ratio does the source give for TGCTGGATGA here?
The switch fluorescence ratio was 1 ± 0.047.

With GGGGGCCATG as the sequence, how does the switch fluorescence ratio read?
The switch fluorescence ratio was 1.03 ± 0.068.

How did the switch fluorescence ratio turn out when GCTGAGGCTT was run?
The switch fluorescence ratio was 0.9593 ± 0.0019.

TTTTTTCTGA was tested. Which switch fluorescence ratio did it give?
The switch fluorescence ratio was 1.01 ± 0.028.

For ATATAAGCCC, which switch fluorescence ratio is on record?
The switch fluorescence ratio was 1.02 ± 0.021.

Which switch fluorescence ratio does the source give for ATGGATTGTG here?
The switch fluorescence ratio was 0.983 ± 0.011.

Which switch fluorescence ratio does the source give for CGCGGGGGGC here?
The switch fluorescence ratio was 1.05 ± 0.084.

How did the switch fluorescence ratio turn out when ATTAAAGGTC was run?
Its switch fluorescence ratio is 1 ± 0.02.

TAAAAGTATA was tested. Which switch fluorescence ratio did it give?
The switch fluorescence ratio was 0.985 ± 0.018.

With GGAGGTAGGG as the sequence, how does the switch fluorescence ratio read?
The switch fluorescence ratio was 0.99915 ± 0.00057.

Which switch fluorescence ratio does the source give for AATCAGAGCG here?
Its switch fluorescence ratio is 1.021 ± 0.0021.

For TCAGGAGTAA, which switch fluorescence ratio is on record?
The switch fluorescence ratio was 1.82 ± 0.12.

TACGGTCCTG was tested. Which switch fluorescence ratio did it give?
The switch fluorescence ratio was 0.99156 ± 0.00092.

How did the switch fluorescence ratio turn out when CCCCGGATTT was run?
Its switch fluorescence ratio is 1.09 ± 0.098.

How did the switch fluorescence ratio turn out when GCTAAAGGCA was run?
Its switch fluorescence ratio is 0.986 ± 0.043.

For TTATACATCT, which switch fluorescence ratio is on record?
The switch fluorescence ratio was 1.038 ± 0.0068.

How did the switch fluorescence ratio turn out when TTGCGAAATC was run?
Its switch fluorescence ratio is 1.44 ± 0.58.

Which switch fluorescence ratio does the source give for TTCGCCTAAG here?
Its switch fluorescence ratio is 0.9658 ± 0.0067.

Which switch fluorescence ratio does the source give for TAATAATTGT here?
Its switch fluorescence ratio is 1.018 ± 0.0078.

How did the switch fluorescence ratio turn out when ACTCGTTGTT was run?
The switch fluorescence ratio was 1.02 ± 0.024.

How did the switch fluorescence ratio turn out when GGGTTGCAGC was run?
Its switch fluorescence ratio is 0.992 ± 0.032.

With CTGCTAGGCT as the sequence, how does the switch fluorescence ratio read?
The switch fluorescence ratio was 1.01 ± 0.028.

Which switch fluorescence ratio does the source give for CAGGCATGAG here?
Its switch fluorescence ratio is 1.01 ± 0.011.

How did the switch fluorescence ratio turn out when GCGAAAGTTT was run?
Its switch fluorescence ratio is 1.01 ± 0.013.

Which switch fluorescence ratio does the source give for TTTGCAGGGA here?
The switch fluorescence ratio was 1.06 ± 0.1.

With CATCAGGAGG as the sequence, how does the switch fluorescence ratio read?
The switch fluorescence ratio was 0.961 ± 0.035.

For TGGATGTCGT, which switch fluorescence ratio is on record?
The switch fluorescence ratio was 1.008 ± 0.0094.

Which switch fluorescence ratio does the source give for CTTGGTTTCT here?
Its switch fluorescence ratio is 1.032 ± 0.0093.

TCGGGATTTA was tested. Which switch fluorescence ratio did it give?
The switch fluorescence ratio was 1.02 ± 0.033.

Which switch fluorescence ratio does the source give for CGTTATCTAG here?
Its switch fluorescence ratio is 1.01 ± 0.03.

CTCGGGTGGT was tested. Which switch fluorescence ratio did it give?
Its switch fluorescence ratio is 0.997 ± 0.061.

Which switch fluorescence ratio does the source give for TAGGTCATGG here?
The switch fluorescence ratio was 0.985 ± 0.011.

CAATATGTTG was tested. Which switch fluorescence ratio did it give?
Its switch fluorescence ratio is 1.02 ± 0.035.

How did the switch fluorescence ratio turn out when CGTGACCGGG was run?
Its switch fluorescence ratio is 0.996 ± 0.016.

With TGGAGATTGG as the sequence, how does the switch fluorescence ratio read?
The switch fluorescence ratio was 0.969 ± 0.023.

AAATGGGTAC was tested. Which switch fluorescence ratio did it give?
Its switch fluorescence ratio is 0.9935 ± 0.0099.

With GGTTCTAAGA as the sequence, how does the switch fluorescence ratio read?
The switch fluorescence ratio was 0.98129 ± 0.00096.

With AGTCGGTGCA as the sequence, how does the switch fluorescence ratio read?
The switch fluorescence ratio was 0.9855 ± 0.0013.

For ACGATTGGGT, which switch fluorescence ratio is on record?
The switch fluorescence ratio was 0.992 ± 0.013.

GTCGAATTAT was tested. Which switch fluorescence ratio did it give?
Its switch fluorescence ratio is 0.999 ± 0.019.

For TTTTGTAGGG, which switch fluorescence ratio is on record?
Its switch fluorescence ratio is 0.969 ± 0.041.

Which switch fluorescence ratio does the source give for CGATTCGCAG here?
The switch fluorescence ratio was 1.25 ± 0.096.

TCGGTGTGAG was tested. Which switch fluorescence ratio did it give?
Its switch fluorescence ratio is 1.01 ± 0.03.

Which switch fluorescence ratio does the source give for ACTATGAGTT here?
The switch fluorescence ratio was 0.9975 ± 0.0073.

With AGGTCACAG as the sequence, how does the switch fluorescence ratio read?
The switch fluorescence ratio was 1 ± 0.03.

With CGTTAAATTT as the sequence, how does the switch fluorescence ratio read?
The switch fluorescence ratio was 0.994 ± 0.033.

How did the switch fluorescence ratio turn out when GACTACTGCA was run?
Its switch fluorescence ratio is 1.13 ± 0.046.

With GATCGGAGCG as the sequence, how does the switch fluorescence ratio read?
Its switch fluorescence ratio is 1.04 ± 0.047.

For TTTAACCGTC, which switch fluorescence ratio is on record?
The switch fluorescence ratio was 1.06 ± 0.052.

For TCATAATTAG, which switch fluorescence ratio is on record?
The switch fluorescence ratio was 1 ± 0.0068.

TTGTTGGTCC was tested. Which switch fluorescence ratio did it give?
Its switch fluorescence ratio is 1.16 ± 0.25.

Which switch fluorescence ratio does the source give for TCGGGAGTAC here?
The switch fluorescence ratio was 1.01 ± 0.015.

For ATTTGGTGAG, which switch fluorescence ratio is on record?
The switch fluorescence ratio was 0.983 ± 0.03.

With TGAACCAGGG as the sequence, how does the switch fluorescence ratio read?
The switch fluorescence ratio was 1.05 ± 0.018.

With GGGGGTTCCC as the sequence, how does the switch fluorescence ratio read?
Its switch fluorescence ratio is 0.9833 ± 0.0017.

How did the switch fluorescence ratio turn out when TTTTCTGTAT was run?
The switch fluorescence ratio was 1.03 ± 0.052.

With CTGTGGGGAT as the sequence, how does the switch fluorescence ratio read?
Its switch fluorescence ratio is 0.961 ± 0.014.

TTTGGTTGGA was tested. Which switch fluorescence ratio did it give?
The switch fluorescence ratio was 0.992 ± 0.038.
